± gives the uncertainty stated by the source.
B1: Far upstream element-binding protein 2, residues 142 to 214; numbered along this chain, Q92945 (parent)
chain: RTSMTEEYRVPDGMVGLIIGRGGEQINKIQQDSGCKVQISPDSGGLPERSVSLTGAPESVQKAKMMLDDIVSR

Variants of: B1
Experiment: abundance fitness (aPCA) (normalised: wild type 0, dead -1); higher = more abundant; growth selection in yeast, the domain comes from the species named
Details: Homo sapiens

Row | Variant | abundance fitness
1 | RTSMTEEYRVPDGMVGLIIGRMGEQINKIQQDSGCKVQISPDSGGLPERSVSLTGAPESVQKAKMMLDDIVSR [G22M] | -0.115 ± 0.062
2 | RTSMTEEYRVPDGMVGLIIGRCGEQINKIQQDSGCKVQISPDSGGLPERSVSLTGAPESVQKAKMMLDDIVSR [G22C] | -0.204 ± 0.057
3 | RTSMTEEYRVPDGMVGLIIGREGEQINKIQQDSGCKVQISPDSGGLPERSVSLTGAPESVQKAKMMLDDIVSR [G22E] | -0.071 ± 0.055
4 | RTSMTEEYRVPDGMVGLIIGRAGEQINKIQQDSGCKVQISPDSGGLPERSVSLTGAPESVQKAKMMLDDIVSR [G22A] | -0.126 ± 0.045
5 | RTSMTEEYRVPDGMVGLIIGRSGEQINKIQQDSGCKVQISPDSGGLPERSVSLTGAPESVQKAKMMLDDIVSR [G22S] | -0.148 ± 0.047
6 | RTSMTEEYRVPDGMVGLIIGRQGEQINKIQQDSGCKVQISPDSGGLPERSVSLTGAPESVQKAKMMLDDIVSR [G22Q] | -0.026 ± 0.055
7 | RTSMTEEYRVPDGMVGLIIGRPGEQINKIQQDSGCKVQISPDSGGLPERSVSLTGAPESVQKAKMMLDDIVSR [G22P] | -0.572 ± 0.056
8 | RTSMTEEYRVPDGMVGLIIGRVGEQINKIQQDSGCKVQISPDSGGLPERSVSLTGAPESVQKAKMMLDDIVSR [G22V] | -0.312 ± 0.047
9 | RTSMTEEYRVPDGMVGLIIGRRGEQINKIQQDSGCKVQISPDSGGLPERSVSLTGAPESVQKAKMMLDDIVSR [G22R] | -0.032 ± 0.039
10 | RTSMTEEYRVPDGMVGLIIGRKGEQINKIQQDSGCKVQISPDSGGLPERSVSLTGAPESVQKAKMMLDDIVSR [G22K] | -0.12 ± 0.07
11 | RTSMTEEYRVPDGMVGLIIGRYGEQINKIQQDSGCKVQISPDSGGLPERSVSLTGAPESVQKAKMMLDDIVSR [G22Y] | -0.226 ± 0.083
12 | RTSMTEEYRVPDGMVGLIIGRWGEQINKIQQDSGCKVQISPDSGGLPERSVSLTGAPESVQKAKMMLDDIVSR [G22W] | -0.308 ± 0.051
13 | RTSMTEEYRVPDGMVGLIIGRDGEQINKIQQDSGCKVQISPDSGGLPERSVSLTGAPESVQKAKMMLDDIVSR [G22D] | -0.027 ± 0.066
14 | RTSMTEEYRVPDGMVGLIIGRLGEQINKIQQDSGCKVQISPDSGGLPERSVSLTGAPESVQKAKMMLDDIVSR [G22L] | -0.234 ± 0.044
15 | RTSMTEEYRVPDGMVGLIIGRIGEQINKIQQDSGCKVQISPDSGGLPERSVSLTGAPESVQKAKMMLDDIVSR [G22I] | -0.34 ± 0.082
16 | RTSMTEEYRVPDGMVGLIIGRHGEQINKIQQDSGCKVQISPDSGGLPERSVSLTGAPESVQKAKMMLDDIVSR [G22H] | -0.234 ± 0.084
17 | RTSMTEEYRVPDGMVGLIIGRNGEQINKIQQDSGCKVQISPDSGGLPERSVSLTGAPESVQKAKMMLDDIVSR [G22N] | -0.167 ± 0.1
18 | RTSMTEEYRVPDGMVGLIIGRTGEQINKIQQDSGCKVQISPDSGGLPERSVSLTGAPESVQKAKMMLDDIVSR [G22T] | -0.192 ± 0.06
19 | RTSMTEEYRVPDGMVGLIIGRGGHQINKIQQDSGCKVQISPDSGGLPERSVSLTGAPESVQKAKMMLDDIVSR [E24H] | -0.019 ± 0.09

Row | Variant | abundance fitness
20 | RTSMTEEYRVPDGMVGLIIGRGGIQINKIQQDSGCKVQISPDSGGLPERSVSLTGAPESVQKAKMMLDDIVSR [E24I] | -0.251 ± 0.11
21 | RTSMTEEYRVPDGMVGLIIGRGGKQINKIQQDSGCKVQISPDSGGLPERSVSLTGAPESVQKAKMMLDDIVSR [E24K] | -0.078 ± 0.058
22 | RTSMTEEYRVPDGMVGLIIGRGGFQINKIQQDSGCKVQISPDSGGLPERSVSLTGAPESVQKAKMMLDDIVSR [E24F] | -0.03 ± 0.086
23 | RTSMTEEYRVPDGMVGLIIGRGGAQINKIQQDSGCKVQISPDSGGLPERSVSLTGAPESVQKAKMMLDDIVSR [E24A] | -0.112 ± 0.045
24 | RTSMTEEYRVPDGMVGLIIGRGGDQINKIQQDSGCKVQISPDSGGLPERSVSLTGAPESVQKAKMMLDDIVSR [E24D] | -0.104 ± 0.067
25 | RTSMTEEYRVPDGMVGLIIGRGGGQINKIQQDSGCKVQISPDSGGLPERSVSLTGAPESVQKAKMMLDDIVSR [E24G] | -0.215 ± 0.039
26 | RTSMTEEYRVPDGMVGLIIGRGYEQINKIQQDSGCKVQISPDSGGLPERSVSLTGAPESVQKAKMMLDDIVSR [G23Y] | -0.393 ± 0.2
27 | RTSMTEEYRVPDGMVGLIIGRGLEQINKIQQDSGCKVQISPDSGGLPERSVSLTGAPESVQKAKMMLDDIVSR [G23L] | -0.169 ± 0.049
28 | RTSMTEEYRVPDGMVGLIIGRGPEQINKIQQDSGCKVQISPDSGGLPERSVSLTGAPESVQKAKMMLDDIVSR [G23P] | -0.314 ± 0.059
29 | RTSMTEEYRVPDGMVGLIIGRGFEQINKIQQDSGCKVQISPDSGGLPERSVSLTGAPESVQKAKMMLDDIVSR [G23F] | -0.3 ± 0.11
30 | RTSMTEEYRVPDGMVGLIIGRGCEQINKIQQDSGCKVQISPDSGGLPERSVSLTGAPESVQKAKMMLDDIVSR [G23C] | -0.212 ± 0.065
31 | RTSMTEEYRVPDGMVGLIIGRGNEQINKIQQDSGCKVQISPDSGGLPERSVSLTGAPESVQKAKMMLDDIVSR [G23N] | -0.241 ± 0.12
32 | RTSMTEEYRVPDGMVGLIIGRGDEQINKIQQDSGCKVQISPDSGGLPERSVSLTGAPESVQKAKMMLDDIVSR [G23D] | -0.187 ± 0.084
33 | RTSMTEEYRVPDGMVGLIIGRGTEQINKIQQDSGCKVQISPDSGGLPERSVSLTGAPESVQKAKMMLDDIVSR [G23T] | -0.27 ± 0.067
34 | RTSMTEEYRVPDGMVGLIIGRGREQINKIQQDSGCKVQISPDSGGLPERSVSLTGAPESVQKAKMMLDDIVSR [G23R] | -0.11 ± 0.039
35 | RTSMTEEYRVPDGMVGLIIGRGQEQINKIQQDSGCKVQISPDSGGLPERSVSLTGAPESVQKAKMMLDDIVSR [G23Q] | -0.126 ± 0.064
36 | RTSMTEEYRVPDGMVGLIIGRGKEQINKIQQDSGCKVQISPDSGGLPERSVSLTGAPESVQKAKMMLDDIVSR [G23K] | -0.177 ± 0.068
37 | RTSMTEEYRVPDGMVGLIIGRGWEQINKIQQDSGCKVQISPDSGGLPERSVSLTGAPESVQKAKMMLDDIVSR [G23W] | -0.32 ± 0.051

From the Human Domainome abundance scans (Beltran et al. 2025)
